According to publication PMC10917357, “Specific protein-RNA interactions are mostly preserved in biomolecular condensates”:

How the values were obtained:
[1] = target: SARS-CoV-2 nucleocapsid (N) (SARS-CoV-2, UniProt P0DTC9 1-419); assay: UV cross-linking MS (LLPS-CLIR-MS); Assay buffers largely not in the material; N protein in 20 mM sodium phosphate pH 6.0, 50 mM NaCl (fig. S7 dispersed mimic 300 mM NaCl); UV 254 nm; turbidity of N at room temperature; NMR 303 or 310 K; conditions: protein: recombinant; tags: N-terminal His6 removed by TEV; chain copies: 2; label: 18O4-ATP post-digestion labeling; hairpin with internal loops
[2] = target: FUS (UniProt P35637 1-526); assay: UV cross-linking MS (LLPS-CLIR-MS); 0.075 and 0.1 eq RNA, 20 uM FUS; RRM (M321, Y325) and region C-terminal to ZnF; Assay buffers largely not in the material; N protein in 20 mM sodium phosphate pH 6.0, 50 mM NaCl (fig. S7 dispersed mimic 300 mM NaCl); UV 254 nm; turbidity of N at room temperature; NMR 303 or 310 K; conditions: protein: recombinant; tags: GB1-His6 removed by TEV; label: isotope-labeled; two hairpins
[3] = target: T1, PTBP1 (C250S/C251S) (Homo sapiens, UniProt P26599-1 1-531, C250S;C251S); assay: UV cross-linking MS (LLPS-CLIR-MS); dispersed and condensed phases; Assay buffers largely not in the material; N protein in 20 mM sodium phosphate pH 6.0, 50 mM NaCl (fig. S7 dispersed mimic 300 mM NaCl); UV 254 nm; turbidity of N at room temperature; NMR 303 or 310 K; conditions: protein: recombinant; label: isotope-labeled; hairpin
[4] = target: T1, PTBP1 (C250S/C251S); assay: UV cross-linking MS (LLPS-CLIR-MS); dispersed and condensed phases; RRM cross-links (H411, H457); Assay buffers largely not in the material; N protein in 20 mM sodium phosphate pH 6.0, 50 mM NaCl (fig. S7 dispersed mimic 300 mM NaCl); UV 254 nm; turbidity of N at room temperature; NMR 303 or 310 K; conditions: protein: recombinant; label: 13C/15N-labeled and unlabeled 1:1; single strand

Q: Does GGUUCACCGAGGCCACGCGGAGUACGAUCGAGUGUACAGUGAACC (structured_RNA) [s2m] bind [1]?
A: binds

B1: U1-SL34 (structured_RNA)
RNA: GGGAUCCGAUUUCCCCAAAUGUGGGAAACUCGACUGCAUAAUUUGUGGUAGUGGGGGACUGCGUUCGCGCUUUCCCCUG
Q: Does B1 bind [2]?
A: binds

Q: Does GGGGGACUGCGUUCGCGCUUUCCC (structured_RNA) [U1-SL4] bind [3]?
A: binds

Q: Does GGGAGAUCUCUAAAAAUCUCUAAAAAUCUCUAAAAA (ssRNA) [3xUCUCU] bind [4]?
A: binds
